Assay results reported in paper PMC4428629, “The Structure of an NDR/LATS Kinase–Mob Complex Reveals a Novel Kinase–Coactivator System and Substrate Docking Mechanism” (PLoS Biology, 2015).
Residues, ends and D or L forms follow the SMILES beside them. No end group written: not given here. carboxyfluorescein = carboxyfluorescein label

Key:
Cbk1^251-756-Mob2 = biological target: T1, Cbk1^251-756-Mob2 (Saccharomyces cerevisiae, UniProt P43563+P53894); experiment: FP direct titration, Cbk1^251-756-Mob2 (WT); format: binding; settings: CF-labeled peptide 20 nM, Tris pH 8.0, triplicate, read-out: peptide binding affinity (table in Fig 5C)
T1 construct: His6-Cbk1^251–756 was co-expressed with GST-Mob2 (full length or 45–287); His6 (N); made in house
T1 sequence (P53894 251-756): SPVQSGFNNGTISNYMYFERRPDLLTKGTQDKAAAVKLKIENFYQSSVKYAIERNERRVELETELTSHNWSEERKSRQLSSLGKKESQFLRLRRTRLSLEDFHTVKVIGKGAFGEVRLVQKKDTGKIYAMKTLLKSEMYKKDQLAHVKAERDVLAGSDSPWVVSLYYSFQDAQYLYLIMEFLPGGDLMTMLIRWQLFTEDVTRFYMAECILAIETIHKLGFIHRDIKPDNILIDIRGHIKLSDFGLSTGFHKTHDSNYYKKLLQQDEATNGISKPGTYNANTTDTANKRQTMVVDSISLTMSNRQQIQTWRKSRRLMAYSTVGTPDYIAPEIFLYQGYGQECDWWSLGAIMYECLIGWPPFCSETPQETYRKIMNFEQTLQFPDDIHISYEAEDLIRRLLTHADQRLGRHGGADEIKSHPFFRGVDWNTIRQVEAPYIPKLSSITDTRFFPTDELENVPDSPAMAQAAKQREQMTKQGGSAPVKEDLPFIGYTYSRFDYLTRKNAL
T1 sequence (P43563 1-287 partner): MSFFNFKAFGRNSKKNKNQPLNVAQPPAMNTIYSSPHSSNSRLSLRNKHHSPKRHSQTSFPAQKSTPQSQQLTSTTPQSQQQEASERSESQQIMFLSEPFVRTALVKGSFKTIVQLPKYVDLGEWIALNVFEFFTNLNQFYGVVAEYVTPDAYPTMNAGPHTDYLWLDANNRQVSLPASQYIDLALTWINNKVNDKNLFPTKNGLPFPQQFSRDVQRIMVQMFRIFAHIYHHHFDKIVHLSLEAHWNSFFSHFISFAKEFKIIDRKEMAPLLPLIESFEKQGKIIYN
Experimental: His6-Cbk1^251–756 was co-expressed with GST-Mob2 (full length or 45–287). Cbk1 kinase domain alone (352–756 or 352–692) was expressed as GST-Cbk1-His6. All constructs were bacterially expressed and purified on a Ni-NTA resin (Qiagen) followed by glutathione Sepharose beads (GE Biosciences). For crystallization, tags were cleaved with TEV protease followed by cation exchange chromatography on a Resource S column. All Cbk1 preparations were subsequently dialyzed into Cbk1 buffer (20 mM Tris-HCl, 150 mM NaCl, 2 mM DTT [pH 8.0]).
For FP-based binding affinity measurements, different docking peptides (pepAce2: GSGSIIVTTNSANGGYQFP; pepSSD1: TTEQSDFKFP; pepHM: IGYTYSRFDY; pepHM-P: IGYpTYSRFDY) were N-terminally (pepAce2 and pepSSD1) or C-terminally (pepHM and pepHM-P) labeled with carboxyfluorescein (CF) fluorescent dyes.
Change in the FP signal in direct binding affinity measurements was monitored as a function of increasing concentration of protein with a Synergy H4 (BioTek Instruments) plate reader in 384-well plates. The labeled peptides were at 20 nM in 20 mM Tris (pH 8.0), 100 mM NaCl, 0.05% Brij35P, 2 mM DTT. The resulting binding isotherms were fit to a quadratic binding equation. The affinity of the unlabeled peptides was measured in steady-state competition experiments: 20 nM labeled reporter was mixed with protein samples in a concentration to achieve ~60%–80% complex formation. Subsequently, increasing amounts of unlabeled peptide were added, and the FP signal was measured as described earlier for direct titration experiments. The Kd for each unlabeled peptide interaction was determined by fitting the data to a competition binding equation. Titration experiments were carried out in triplicate, and the average FP signal was used for fitting the data with OriginPro 7.

Cbk1(W444A)–Mob2 complex = Cbk1(W444A)–Mob2 complex (S. cerevisiae, UniProt P53894 251-756; P43563 1-287, W444A); experiment: FP
Sequence of Cbk1(W444A)–Mob2 complex (P53894 251-756 W444A, chain 1 of 2, one chain of several): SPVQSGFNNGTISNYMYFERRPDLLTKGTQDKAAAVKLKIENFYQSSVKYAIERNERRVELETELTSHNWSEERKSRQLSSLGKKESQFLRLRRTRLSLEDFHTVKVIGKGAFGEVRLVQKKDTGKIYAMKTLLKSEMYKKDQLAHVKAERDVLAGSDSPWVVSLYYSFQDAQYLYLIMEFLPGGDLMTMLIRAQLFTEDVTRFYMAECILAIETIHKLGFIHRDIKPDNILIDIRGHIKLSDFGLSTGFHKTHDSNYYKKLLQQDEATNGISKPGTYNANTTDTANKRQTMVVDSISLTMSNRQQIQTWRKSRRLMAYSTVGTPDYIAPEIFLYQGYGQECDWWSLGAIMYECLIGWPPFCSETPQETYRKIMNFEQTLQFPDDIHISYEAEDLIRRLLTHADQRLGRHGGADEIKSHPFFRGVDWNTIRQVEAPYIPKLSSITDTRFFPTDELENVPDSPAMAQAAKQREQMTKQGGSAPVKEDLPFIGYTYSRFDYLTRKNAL

[1] = biological target: T2, Cbk1^251–756–Mob2 complex (S. cerevisiae, UniProt P53894 251-756; P43563 1-287); experiment: FP
T2 chain 1: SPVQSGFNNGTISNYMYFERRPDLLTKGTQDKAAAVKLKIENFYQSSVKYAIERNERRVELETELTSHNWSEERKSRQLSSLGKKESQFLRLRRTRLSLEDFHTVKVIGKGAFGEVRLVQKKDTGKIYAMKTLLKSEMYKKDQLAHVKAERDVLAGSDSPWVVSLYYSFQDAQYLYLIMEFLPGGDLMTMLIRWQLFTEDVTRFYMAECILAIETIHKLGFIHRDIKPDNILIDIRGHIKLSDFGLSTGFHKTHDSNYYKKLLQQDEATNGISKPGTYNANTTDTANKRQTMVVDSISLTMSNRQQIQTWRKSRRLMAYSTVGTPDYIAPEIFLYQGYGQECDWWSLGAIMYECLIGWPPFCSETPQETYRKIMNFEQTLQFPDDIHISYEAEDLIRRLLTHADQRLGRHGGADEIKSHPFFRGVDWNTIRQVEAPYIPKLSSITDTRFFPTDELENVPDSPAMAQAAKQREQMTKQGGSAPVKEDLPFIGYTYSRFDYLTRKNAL
T2 chain 2: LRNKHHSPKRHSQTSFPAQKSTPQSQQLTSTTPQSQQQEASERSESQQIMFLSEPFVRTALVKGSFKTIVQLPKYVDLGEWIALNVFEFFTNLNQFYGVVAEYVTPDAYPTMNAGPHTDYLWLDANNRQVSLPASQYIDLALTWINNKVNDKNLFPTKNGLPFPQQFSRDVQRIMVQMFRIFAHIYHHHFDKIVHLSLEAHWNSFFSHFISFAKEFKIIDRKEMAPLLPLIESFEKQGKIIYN

Cbk1(F699A)–Mob2 complex = Cbk1(F699A)–Mob2 complex (S. cerevisiae, UniProt P53894 251-756; P43563 1-287, F699A); experiment: FP
[2] = system: budding yeast cell separation (RAM network output); experiment: Cell separation assay (cells per group); format: cell-based, Saccharomyces cerevisiae; settings: cbk1-as2 strain
Experimental: For cell separation assays, ckb1Δ, ace2ΔCBK1, or ace2Δcbk1-as2 cells were transformed with empty, WT, or mutant vector under control of the ADH1 promoter. Cells were grown to log-phase, briefly sonicated, and mounted on slides to count cell group size. Histograms represent mean ± standard deviation of three independent cultures, with >100 groups counted for each. For quantification of transcriptional output, RNA was isolated from log-phase cultures and analyzed by real-time PCR. Bar graphs represent mean ± standard deviation of three independent cultures. For growth assays, WT CBK1 or cbk1-as2 strains were transformed with vectors containing Ssd1 (WT and mutants) expressed from a galactose-inducible promoter. Stationary phase cells grown in glucose were diluted to OD600 = 0.2. Five-fold serial dilutions (5^−2, 5^−3, 5^−4, 5^−5) were plated in the presence of glucose or galactose, then incubated for 3 d at 24°C.
(§1) Supplementary file pbio.1002146.s001.xlsx: S1 Data Measurements of the distances between the centers of mass of indicated Cbk1 and Mob2 regions over the course of the molecular dynamics simulations described in Figs 3 and S4. This file also contains data quantifying the effectiveness of cell separation in different genetic backgrounds. In these experiments we counted the number of cells present in clumps of specific sizes in random microscope fields, and then binned these groups into clump size ranges: 1–4 cells, 5–10 cells, 11–20 cells, and ≥21 cells per clump. We quantified this for the indicated allele combinations, scoring three independent isolates of each allele combination. The number of cell bodies present in clumps of different sizes is a function of the efficiency of cell separation. (XLSX) Click here for additional data file.
as §1, with “pbio.1002146.s004.xlsx: S4” for “pbio.1002146.s001.xlsx: S1”, “Data” for “Measurements of the distances between the centers of mass of indicated Cbk1 and Mob2 regions over the course of the molecular dynamics simulations described in Figs 3 and S4. This file also contains data”, “1–2 cells, 3–4” for “1–4”

[3] = system: budding yeast cell separation (RAM network output); experiment: Cell separation assay (cells per group); format: cell-based, Saccharomyces cerevisiae; settings: cbk1-as2 strain; remark: listed apart in the source

C[C@@H](O)[C@H](N)C(=O)N[C@H](C(=O)N[C@@H](CCC(=O)O)C(=O)N[C@@H](CCC(N)=O)C(=O)N[C@@H](CO)C(=O)N[C@@H](CC(=O)O)C(=O)N[C@@H](Cc1ccccc1)C(=O)N[C@@H](CCCCN)C(=O)N[C@@H](Cc1ccccc1)C(=O)N1CCC[C@H]1C(=O)O)[C@@H](C)O [pepSSD1] (H-TTEQSDFKFP-OH)
Kd (Cbk1^251-756-Mob2): 6 µM

carboxyfluorescein-GSGSIIVTTNSANGGYQFP [pepAce2, carboxyfluorescein-labelled]
Kd (Cbk1(W444A)–Mob2 complex): 19 µM
Kd [1]: 5 µM
Kd (Cbk1(F699A)–Mob2 complex): 5 µM

B1: Ace2 WT (protein, UniProt P21192 1-770, looked up)
Metallothionein expression …: MDNVVDPWYINPSGFAKDTQDEEYVQHHDNVNPTIPPPDNYILNNENDDGLDNLLGMDYYNIDDLLTQELRDLDIPLVPSPKTGDGSSDKKNIDRTWNLGDENNKVSHYSKKSMSSHKRGLSGTAIFGFLGHNKTLSISSLQQSILNMSKDPQPMELINELGNHNTVKNNNDDFDHIRENDGENSYLSQVLLKQQEELRIALEKQKEVNEKLEKQLRDNQIQQEKLRKVLEEQEEVAQKLVSGATNSNSKPGSPVILKTPAMQNGRMKDNAIIVTTNSANGGYQFPPPTLISPRMSNTSINGSPSRKYHRQRYPNKSPESNGLNLFSSNSGYLRDSELLSFSPQNYNLNLDGLTYNDHNNTSDKNNNDKKNSTGDNIFRLFEKTSPGGLSISPRINGNSLRSPFLVGTDKSRDDRYAAGTFTPRTQLSPIHKKRESVVSTVSTISQLQDDTEPIHMRNTQNPTLRNANALASSSVLPPIPGSSNNTPIKNSLPQKHVFQHTPVKAPPKNGSNLAPLLNAPDLTDHQLEIKTPIRNNSHCEVESYPQVPPVTHDIHKSPTLHSTSPLPDEIIPRTTPMKITKKPTTLPPGTIDQYVKELPDKLFECLYPNCNKVFKRRYNIRSHIQTHLQDRPYSCDFPGCTKAFVRNHDLIRHKISHNAKKYICPCGKRFNREDALMVHRSRMICTGGKKLEHSINKKLTSPKKSLLDSPHDTSPVKETIARDKDGSVLMKMEEQLRDDMRKHGLLDPPPSTAAHEQNSNRTLSNETDAL
Cells per group, bin 2 (1-2), % ([2]; Isolate 1): 76.6187%
Cells per group, bin 10 (5-10), % ([2]; Isolate 1): 5.7554%
Cells per group, bin 20 (11-20), % ([2]; Isolate 1): 0.7194%
Cells per group, bin More (20+), % ([2]; Isolate 1): 0%
Cells per group, bin 10 (5-10), Frequency ([2]; Isolate 1, count): 16
Cells per group, bin 20 (11-20), Frequency ([2]; Isolate 1, count): 2
Cells per group, bin More (20+), Frequency ([2]; Isolate 1, count): 0
Cells per group, bin 2 (1-2), % ([2]; Isolate 2): 92.7273%
Cells per group, bin 4 (3-4), % ([2]; Isolate 2): 6.545%
Cells per group, bin 10 (5-10), % ([2]; Isolate 2): 0.7273%
Cells per group, bin 20 (11-20), % ([2]; Isolate 2): 0%
Cells per group, bin More (20+), % ([2]; Isolate 2): 0%
Cells per group, bin 2 (1-2), Frequency ([2]; Isolate 2, count): 255
Cells per group, bin 10 (5-10), Frequency ([2]; Isolate 2, count): 2
Cells per group, bin 20 (11-20), Frequency ([2]; Isolate 2, count): 0
Cells per group, bin More (20+), Frequency ([2]; Isolate 2, count): 0
Cells per group, bin 4 (3-4), % ([2]; Isolate 3): 1.579%
Cells per group, bin 10 (5-10), % ([2]; Isolate 3): 0.5263%
Cells per group, bin 20 (11-20), % ([2]; Isolate 3): 0.5263%
Cells per group, bin More (20+), % ([2]; Isolate 3): 0%
Cells per group, bin 2 (1-2), Frequency ([2]; Isolate 3, count): 185
Cells per group, bin 4 (3-4), Frequency ([2]; Isolate 3, count): 3
Cells per group, bin 10 (5-10), Frequency ([2]; Isolate 3, count): 1
Cells per group, bin 20 (11-20), Frequency ([2]; Isolate 3, count): 1
Cells per group, bin More (20+), Frequency ([2]; Isolate 3, count): 0
Cells per group, 1-2, Mean ([2]; mean of 3 isolates): 88.9048%
Cells per group, 3-4, Mean ([2]; mean of 3 isolates): 8.344%
Cells per group, 5-10, Mean ([2]; mean of 3 isolates): 2.336%
Cells per group, 11-20, Mean ([2]; mean of 3 isolates): 0.4152%
Cells per group, 20+, Mean ([2]; mean of 3 isolates): 0%
Cells per group, bin 4 (3-4), % ([3]; Isolate 1): 16.9065%
Cells per group, bin 2 (1-2), Frequency ([3]; Isolate 1, count): 213
Cells per group, bin 4 (3-4), Frequency ([3]; Isolate 1, count): 47
Cells per group, bin 4 (3-4), Frequency ([3]; Isolate 2, count): 18
Cells per group, bin 2 (1-2), % ([3]; Isolate 3): 97.3684%
